Experimental data from paper PMC2811003 (Nucleic Acids Research, 2009).

What was measured:
PriB wild type = target: T1, PriB wild type (Neisseria gonorrhoeae FA1090, UniProt Q5F924 1-100); assay: fluorescence anisotropy
T1 sequence: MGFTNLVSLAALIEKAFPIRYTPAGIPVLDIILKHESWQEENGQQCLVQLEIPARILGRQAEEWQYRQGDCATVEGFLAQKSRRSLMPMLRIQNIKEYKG

[1] = target: T2, His-tagged Neisseria gonorrhoeae PriA (Neisseria gonorrhoeae, UniProt Q5F6V8 1-729); assay: pull-down
T2 sequence (looked up): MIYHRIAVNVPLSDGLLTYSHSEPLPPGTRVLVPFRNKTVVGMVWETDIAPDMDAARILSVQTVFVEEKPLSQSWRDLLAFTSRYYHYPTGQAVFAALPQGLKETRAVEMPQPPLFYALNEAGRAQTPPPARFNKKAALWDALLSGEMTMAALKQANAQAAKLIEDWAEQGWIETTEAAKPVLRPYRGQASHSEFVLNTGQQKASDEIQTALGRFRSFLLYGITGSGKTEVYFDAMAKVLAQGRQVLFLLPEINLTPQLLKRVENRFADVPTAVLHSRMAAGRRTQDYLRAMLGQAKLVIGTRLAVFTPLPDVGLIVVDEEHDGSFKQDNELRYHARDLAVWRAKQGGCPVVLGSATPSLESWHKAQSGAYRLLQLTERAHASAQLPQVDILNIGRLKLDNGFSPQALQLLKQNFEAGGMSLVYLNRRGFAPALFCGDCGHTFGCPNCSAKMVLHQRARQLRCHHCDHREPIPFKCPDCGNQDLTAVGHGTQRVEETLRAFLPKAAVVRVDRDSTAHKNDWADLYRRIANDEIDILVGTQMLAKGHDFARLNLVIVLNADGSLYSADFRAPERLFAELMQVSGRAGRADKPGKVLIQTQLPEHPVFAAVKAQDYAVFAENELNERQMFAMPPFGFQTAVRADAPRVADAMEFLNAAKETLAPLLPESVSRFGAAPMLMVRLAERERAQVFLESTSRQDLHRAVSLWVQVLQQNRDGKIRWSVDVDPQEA

crystal structure = target: the molecule itself; assay: crystal structure
[2] = target: T3, Neisseria gonorrhoeae PriA (Neisseria gonorrhoeae, UniProt Q5F6V8 1-729); assay: fluorescence polarisation
T3 sequence: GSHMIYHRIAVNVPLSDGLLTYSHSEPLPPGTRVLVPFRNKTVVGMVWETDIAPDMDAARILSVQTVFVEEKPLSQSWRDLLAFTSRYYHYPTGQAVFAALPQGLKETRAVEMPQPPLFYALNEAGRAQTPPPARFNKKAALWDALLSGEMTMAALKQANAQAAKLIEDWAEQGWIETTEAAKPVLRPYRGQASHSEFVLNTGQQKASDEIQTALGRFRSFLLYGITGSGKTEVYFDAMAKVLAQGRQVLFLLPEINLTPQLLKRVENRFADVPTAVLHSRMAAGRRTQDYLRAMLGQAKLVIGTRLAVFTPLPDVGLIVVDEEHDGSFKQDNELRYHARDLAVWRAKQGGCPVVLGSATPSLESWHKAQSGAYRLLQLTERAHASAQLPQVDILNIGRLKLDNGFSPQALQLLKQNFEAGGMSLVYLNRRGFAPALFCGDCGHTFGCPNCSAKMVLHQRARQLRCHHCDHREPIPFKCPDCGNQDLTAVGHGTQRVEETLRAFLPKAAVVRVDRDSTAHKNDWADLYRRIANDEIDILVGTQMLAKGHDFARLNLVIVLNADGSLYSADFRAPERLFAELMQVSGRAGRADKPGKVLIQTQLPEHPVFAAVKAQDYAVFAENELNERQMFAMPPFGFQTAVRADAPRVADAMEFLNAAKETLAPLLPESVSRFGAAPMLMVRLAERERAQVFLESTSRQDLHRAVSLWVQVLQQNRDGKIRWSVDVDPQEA

PriB Y21A = target: T4, PriB Y21A (Neisseria gonorrhoeae FA1090, UniProt Q5F924 1-100, Y21A); assay: fluorescence anisotropy
T4 sequence: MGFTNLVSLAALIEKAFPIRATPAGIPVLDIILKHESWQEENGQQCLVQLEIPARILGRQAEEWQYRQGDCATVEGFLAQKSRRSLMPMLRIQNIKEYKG

PriB E41A = target: T5, PriB E41A (Neisseria gonorrhoeae FA1090, UniProt Q5F924 1-100, E41A); assay: fluorescence anisotropy
T5 sequence: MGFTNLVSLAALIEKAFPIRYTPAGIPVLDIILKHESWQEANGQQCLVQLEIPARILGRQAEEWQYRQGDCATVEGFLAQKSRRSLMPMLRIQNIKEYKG

## GCCGTGATCACCAATGCAGATTGACGAACCTTTGCTCCAGTAACC (ssDNA) [45-base fluoro-ssDNA]
PriB wild type
  Kd: 1020 ± 34 nM

B1: Neisseria gonorrhoeae PriB (natural protein)
chain: GSHMGFTNLVSLAALIEKAFPIRYTPAGIPVLDIILKHESWQEENGQQCLVQLEIPARILGRQAEEWQYRQGDCATVEGFLAQKSRRSLMPMLRIQNIKEYKG
[1]
  binding result: binds
Crystal structure
  stoichiometry N: 2

B2: FITC-labeled Neisseria gonorrhoeae PriB (natural protein)
chain: GSHMGFTNLVSLAALIEKAFPIRYTPAGIPVLDIILKHESWQEENGQQCLVQLEIPARILGRQAEEWQYRQGDCATVEGFLAQKSRRSLMPMLRIQNIKEYKG
modifications: FITC (fluorescein isothiocyanate) label, 0.34 FITC per PriB dimer; labeled residue not stated
[2]
  Kd: 137 nM

## AAGCACAATTACCCACGC (ssDNA) [18-base fluoro-ssDNA]
PriB wild type
  Kd: 662 ± 37 nM

## GCCGTGATCACCAATGCAGATTGACGAACCTTTGCC (ssDNA) [36-base fluoro-ssDNA]
PriB Y21A
  Kd: 641 ± 41 nM
PriB E41A
  Kd: 139 ± 26 nM
PriB wild type
  Kd: 475 ± 20 nM
